The text below walks through data of patent US20110275102.

The target in data set [1] is GSK3-β partially purified from rabbit skeletal muscle, A0A5F9.
Data set [2] has as its target T1, Crosstide GRPRTSSFAEG
T1 chain: GRPRTSSFAEG

Data set [3] has as its target GSK3-α partially purified from rabbit skeletal muscle.

Chain of GSK3-β partially purified from rabbit skeletal muscle, A0A5F9 (A0A5F9 entry or part of it): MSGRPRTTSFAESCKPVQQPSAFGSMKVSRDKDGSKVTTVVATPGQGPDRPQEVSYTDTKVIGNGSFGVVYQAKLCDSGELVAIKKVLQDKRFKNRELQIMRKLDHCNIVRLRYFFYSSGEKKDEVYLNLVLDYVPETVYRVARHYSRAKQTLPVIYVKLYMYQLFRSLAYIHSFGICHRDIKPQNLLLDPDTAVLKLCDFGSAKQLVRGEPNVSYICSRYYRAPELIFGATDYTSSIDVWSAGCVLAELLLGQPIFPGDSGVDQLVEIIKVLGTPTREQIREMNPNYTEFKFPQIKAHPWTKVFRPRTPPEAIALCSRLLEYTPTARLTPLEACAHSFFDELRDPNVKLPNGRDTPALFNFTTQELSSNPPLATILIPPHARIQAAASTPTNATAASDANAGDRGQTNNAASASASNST

B1: RAC-PK immunoprecipitated or chromatographed from insulin-stimulated L6 myotubes (protein)
chain: MNDVAIVKEGWLHKRGEYIKTWRPRYFLLKNDGTFIGYKERPQDVEQRESPLNNFSVAQCQLMKTERPRPNTFIIRCLQWTTVIERTFHVETPEEREEWTTAIQTVADGLKRQEEETMDFRSGSPSDNSGAEEMEVALAKPKHRVTMNEFEYLKLLGKGTFGKVILVKEKATGRYYAMKILKKEVIVAKDEVAHTLTENRVLQNSRHPFLTALKYSFQTHDRLCFVMEYANGGELFFHLSRERVFSEDRARFYGAEIVSALDYLHSEKNVVYRDLKLENLMLDKDGHIKITDFGLCKEGIKDGATMKTFCGTPEYLAPEVLEDNDYGRAVDWWGLGVVMYEMMCGRLPFYNQDHEKLFELILMEEIRFPRTLGPEAKSLLSGLLKKDPTQRLGGGSEDAKEIMQHRFFANIVWQDVYEKKLSPPFKPQVTSETDTRYFDEEFTAQMITITPPDQDDSMECVDSERRPHFPQFSYSASGTA
As for B1, in data set [1], the “GSK3 activity after incubation with MgATP and RAC-PK” value is “RAC-PK from insulin-stimulated L6 myotubes (but not from unstimulated or wortmannin-treated cells) inactivated GSK3-α and GSK3-β in vitro”; the “site of in vitro phosphorylation (tryptic peptide, solid-phase sequencing)” value is “the third residue of these, corresponding to Ser9 (GSK3-β) or Ser21 (GSK3-α), was the site of phosphorylation in each phosphopeptide”. Besides, the “site of phosphorylation in Crosstide” value in data set [2] was “Akt/RAC phosphorylated the Ser in the Crosstide equivalent to Ser21 in GSK3-α and Ser9 in GSK3-β (data not shown)”. Further, the “GSK3 activity after incubation with MgATP and RAC-PK” value in data set [3] is “RAC-PK from insulin-stimulated L6 myotubes (but not from unstimulated or wortmannin-treated cells) inactivated GSK3-α and GSK3-β in vitro”.
